We go through four molecules from US20160257732A1.

The target in experiment [1] is recombinant HA (rHA), subtype H5 (A/Vietnam/1203/04(H5N1)) (influenza A virus). Kind of experiment: ELISA, coated rHA. In general terms: ELISA stands for enzyme-linked immunosorbent assay.
The target in experiment [2] is recombinant HA (rHA), subtype H2 (A/Swine/MO/06 (H2N3)) (influenza A virus). As to the kind of experiment: ELISA, coated rHA.
Experiment [3] has as its target recombinant HA (rHA), subtype H3 (A/Perth/16/09 (H3N2)) (influenza A virus). Kind of experiment: ELISA, coated rHA.
For experiment [4], the target named is recombinant HA (rHA), subtype H9 (A/chicken/HK/G9/97(H9N2)) (influenza A virus). As to the kind of experiment: ELISA, coated rHA.
The target of experiment [5] is recombinant HA (rHA), subtype H7 (A/Netherlands/219/03(H7N7)) (influenza A virus). Kind of experiment: ELISA, coated rHA.
Experiment [6] concerns the target recombinant HA (rHA), subtype H6 (A/teal/HK/W312/97(H6N1)) (influenza A virus). As to the kind of experiment: ELISA, coated rHA.
Experiment [7] addresses His-tagged HA subtype H3 (A/Perth/16/09 (H3N2)) (influenza A virus). Kind of experiment: Octet BLI, His-tagged HA on anti-His sensors. For orientation: BLI is a label-free optical method that tracks binding on a fibre tip over time.
Experiment [8] addresses His-tagged HA subtype H1 (A/California/7/04 (H1N1)) (influenza A virus). Kind of experiment: Octet BLI, His-tagged HA on anti-His sensors.

Numbering of substitutions follows the chain as printed.

A word on the EC50: it is the concentration that produces a half-maximal response. The Kd is the concentration at which binding is half-saturated. For orientation: koff means the rate constant with which the complex falls apart. Low values mean slow dissociation, high ones fast dissociation. In general, kon refers to the second-order rate constant of association. A high value points to fast association.

B1: Antibody 8 (antibody, V domains shown)
VH: QVQLQQSGPGLVKPSQTLSLTCVISGDTVSSNRATWNWMRQSPLRGLEWLGRTYYRSKWYNDYAVSVKSRVVINPDTSKNQVSLQLNTVTPDDSGVYFCARGGHITVFGVNIDAFDIWGLGTKVTVSS
VL: DIQMTQSPSSLSASVGDRVTISCRASQRLNSYLHWYQQTPGQAPKLLIYATSTLQSGVSPRFSGSGSGTDFTLTISSLQPEDVATYYCQLSRTFGHGTKVEIK
B1: the concentration giving a half-maximal response (EC50) in experiment [1] was 0.044 µg/mL; in experiment [2] it was 0.058 µg/mL; in experiment [3] it was 0.067 µg/mL; in experiment [4], more than 6 µg/mL; in experiment [5] it was 0.015 µg/mL; in experiment [6] it was 0.091 µg/mL.

B2: Antibody 5 (antibody, V domains shown)
VH: QVQLQQSGPGLVKPSQTLSLTCAISGDRVSSNSAVWNWIRQSPSRGLEWLGRTYYRSKWYYDYAESVKSRIVIDPDTSKNQVSLQLNSVTPEDSAIYYCARGGHITVFGLNIDAYDIWGQGAMVTVSS
VL: DIQMTQSPSSLSASVGDRVTISCRAQSLSSYLHWYQQKPGQPPKLLIYAATTLQSGVPSRFSGSGSGTDFTLTISTFQAEDVATYYCQQSRTFGQGTKVEIK
For B2, the results for the dissociation constant (Kd) in experiment [7] and in experiment [8] were 0.338 nM and 0.005 nM, respectively. Further, the koff was 8.8e-05 s⁻¹ in experiment [7] and less than 5e-06 s⁻¹ in experiment [8]. Further, the on-rate (kon) in experiment [7] was found to be 260000 M⁻¹ s⁻¹; in experiment [8], 1e+06 M⁻¹ s⁻¹. For the same molecule, the half-maximal effective concentration (EC50) in experiment [1] was 0.041 µg/mL; in experiment [2] it was 0.048 µg/mL; in experiment [3], 0.03 µg/mL; in experiment [4], more than 6 µg/mL; in experiment [5], 0.024 µg/mL; in experiment [6], 0.047 µg/mL.

B3: Antibody 6 (antibody, V domains shown)
VH: B2 VH with V107E
VL: B2 VL
On to B3, for which the EC50 was 0.256 µg/mL in experiment [1]; 0.213 µg/mL in experiment [2]; 0.064 µg/mL in experiment [3]; more than 6 µg/mL in experiment [4]; 0.116 µg/mL in experiment [5]; 0.214 µg/mL in experiment [6].

B4: Antibody 10 (antibody, V domains shown)
VH: QVQLQQSGPGLVKPSQTLSLTCAISGDSVSSNSATWNWIRQSPSRGLEWLGRTYYRSKWYNDYADFLKRRITINPDTSNNEVSLRLTSVTPDDTALYYCARGGHITVFGVNIDAFDVWGQGTMVTVSS
VL: DIQMTQSPSSLSASVGDRITISCRTSQSLRSYLHWYQQKPGKAPKLLIYASSTLQSGVPSRFSGSGSGTDFTLTISNLQPEDFATYYCQLSRTFGQGTKVEIK
For the molecule B4, the EC50 in experiment [1] was determined as 0.058 µg/mL; in experiment [2] it was 0.075 µg/mL; in experiment [3], 0.049 µg/mL; in experiment [4], 2.7 µg/mL; in experiment [5], 0.034 µg/mL; in experiment [6], 0.097 µg/mL.
